Experimental data as given in patent publication US20250368745A1 (published 2025).
Numbering of substitutions follows the chain as printed.

T1: human IL-18BP (human, UniProt O95998 31-194)
T1 construct: UniProt printed as 095998; also called hIL-18BP
T1 sequence: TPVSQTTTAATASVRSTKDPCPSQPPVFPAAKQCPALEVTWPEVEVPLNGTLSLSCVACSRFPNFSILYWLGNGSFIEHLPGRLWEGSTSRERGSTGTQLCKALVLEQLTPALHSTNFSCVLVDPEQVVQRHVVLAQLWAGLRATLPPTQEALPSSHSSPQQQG

B1: SA301a HC-S56F (antibody, name in Kabat numbering, V domains shown)
VH: QVQLQESGPGLVKPSQTLSLTCTVSGYSITSDYNSHWIRQPPGKGLEWIGYIHYSGFTNYNPSLKSRVTISRDTSKNQFSLKLSSVTAADTAVYYCARNYGSIYVNYFDYWGQGTLVTVSS
VL: EIVLTQSPATLSLSPGERATLSCSASSSVSYMYWYQQKPGQAPRPLIYRTSNLASGIPARFSGSGSGTDFTLTISSLEPEDFAVYYCQQYHSYPTFGGGTKVEIK
notes: IgG1 kappa
B2: SA301a HC-S56I (antibody, name in Kabat numbering, V domains shown)
VH: B1 VH with F57I
VL: B1 VL
notes: IgG1 kappa
B3: SA301a HC-S56Y (antibody, name in Kabat numbering, V domains shown)
VH: B1 VH with F57Y
VL: B1 VL
notes: IgG1 kappa
B4: SA301a HC-S56V (antibody, name in Kabat numbering, V domains shown)
VH: B1 VH with F57V
VL: B1 VL
notes: IgG1 kappa
B5: SA301a HC-T57G (antibody, name in Kabat numbering, V domains shown)
VH: B1 VH with F57S, T58G
VL: B1 VL
notes: IgG1 kappa
B6: SA301a HC-S56T (antibody, name in Kabat numbering, V domains shown)
VH: B1 VH with F57T
VL: B1 VL
notes: IgG1 kappa
B7: SA301a HC-T57D (antibody, name in Kabat numbering, V domains shown)
VH: B1 VH with F57S, T58D
VL: B1 VL
notes: IgG1 kappa
B8: SA301a HC-T57K (antibody, name in Kabat numbering, V domains shown)
VH: B1 VH with F57S, T58K
VL: B1 VL
notes: IgG1 kappa
B9: SA301a HC-T57I (antibody, name in Kabat numbering, V domains shown)
VH: B1 VH with F57S, T58I
VL: B1 VL
notes: IgG1 kappa
B10: SA301a HC-S56K (antibody, name in Kabat numbering, V domains shown)
VH: B1 VH with F57K
VL: B1 VL
notes: IgG1 kappa
B11: SA301a HC-S56G (antibody, name in Kabat numbering, V domains shown)
VH: B1 VH with F57G
VL: B1 VL
notes: IgG1 kappa
B12: SA301a HC-S56P (antibody, name in Kabat numbering, V domains shown)
VH: B1 VH with F57P
VL: B1 VL
notes: IgG1 kappa
B13: SA301a HC-T57E (antibody, name in Kabat numbering, V domains shown)
VH: B1 VH with F57S, T58E
VL: B1 VL
notes: IgG1 kappa
B14: SA301a HC-S56R (antibody, name in Kabat numbering, V domains shown)
VH: B1 VH with F57R
VL: B1 VL
notes: IgG1 kappa
B15: SA301a HC-T57A (antibody, name in Kabat numbering, V domains shown)
VH: B1 VH with F57S, T58A
VL: B1 VL
notes: IgG1 kappa
B16: SA301a HC-S56H (antibody, name in Kabat numbering, V domains shown)
VH: B1 VH with F57H
VL: B1 VL
notes: IgG1 kappa
B17: SA301a HC-S56L (antibody, name in Kabat numbering, V domains shown)
VH: B1 VH with F57L
VL: B1 VL
notes: IgG1 kappa
B18: SA301a HC-S56M (antibody, name in Kabat numbering, V domains shown)
VH: B1 VH with F57M
VL: B1 VL
notes: IgG1 kappa
B19: SA301a HC-T57F (antibody, name in Kabat numbering, V domains shown)
VH: B1 VH with F57S, T58F
VL: B1 VL
notes: IgG1 kappa

Each binder was assayed against T1, human IL-18BP (assay: BLI, apparent KD).
B1 showed a Kd of 0.7 nM. B2 gave a Kd of 0.48 nM. In the case of B3, the Kd is reported as 1 nM. Work on B4 yielded a Kd of 0.25 nM. In the case of B5, the Kd is reported as 0.11 nM. For B6, the Kd was 0.45 nM. Binder B7 has a Kd of 1.73 nM. Work on B8 yielded a Kd of 0.52 nM. Binder B9 has a Kd of 0.28 nM. For B10, the Kd was 0.64 nM. B11 gave a Kd of 0.46 nM. In the case of B12, the Kd is reported as 0.97 nM. For B13, the Kd was 0.42 nM. For B14, the Kd was 0.17 nM. B15 showed a Kd of 0.9 nM. B16 gave a Kd of 0.55 nM. B17 showed a Kd of 0.36 nM. With B18 the Kd was 0.46 nM. Work on B19 yielded a Kd of 1.22 nM.
